US9205136B2, “Human aminoacyl-tRNA synthetase polypeptides useful for the regulation of angiogenesis” (THE SCRIPPS RESEARCH INSTITUTE, priority 2000, dated 2015)

B1: extended carboxyl-terminal domain: recombinant residues 344-528 of human full-length TyrRS (protein, UniProt P54577 344-528, looked up, fragment)
chain: PSKQKPMAKGPAKNSEPEEVIPSRLDIRVGKIITVEKHPDADSLYVEKIDVGEAEPRTVVSGLVQFVPKEELQDRLVVVLCNLKPQKMRGVESQGMLLCASIEGINRQVEPLDPPAGSAPGEHVFVKGYEKGQPDEELKPKKKVFEKLQADFKISEECIAQWKQTNFMTKLGSISCKSLKGGNIS
B2: EMAP II: human mature endothelial monocyte-activating polypeptide II, C-terminal His6 tag (protein)
chain: ANNDAVLKRLEQKGAEADQIIEYLKQQVSLLKEKAILQATLREEKKLRVENAKLKKEIEELKQELIQAEIQNGVKQIPFPSGTPLHANSMVSENVIQSTAVTTVSSGTKEQIKGGTGDEKKAKEKIEKKGEKKEKKQQSIAGSADSKPIDVSRLDLRIGCIITARKHPDADSLYVEEVDVGEIAPRTVVSGLVNHVPLEQMQNRMVILLCNLKPAKMRGVLSQAMVMCASSPEKIEILAPPNGSVPGDRITFDAFPGEPDKELNPKKKIWEQIQPDLHTNDECVATYKGVPFEVKGKGVCRAQTMSNSGIKHHHHHH
B3: truncated mini TyrRS: recombinant truncated mini TyrRS comprising residues 1-344 of human full-length TyrRS (protein, UniProt P54577 1-344, looked up, fragment)
chain: MGDAPSPEEKLHLITRNLQEVLGEEKLKEILKERELKIYWGTATTGKPHVAYFVPMSKIADFLKAGCEVTILFADLHAYLDNMKAPWELLELRVSYYENVIKAMLESIGVPLEKLKFIKGTDYQLSKEYTLDVYRLSSVVTQHDSKKAGAEVVKQVEHPLLSGLLYPGLQALDEEYLKVDAQFGGIDQRKIFTFAEKYLPALGYSKRVHLMNPMVPGLTGSKMSSSEEESKIDLLDRKEDVKKKLKKAFCEPGNVENNGVLSFIKHVLFPLKSEFVILRDEKWGGNKTYTAYVDLEKDFAAEVVHPGDLKNSVEVALNKLLDPIREKFNTPALKKLASAAYPDP
B4: NAP-2: human recombinant NAP-2 (Biosource International), α-chemokine (protein)
chain: AELRCMCIKTTSGIHPKNIQSLEVIGKGTHCNQVEVIATLKDGRKICLDPDAPRIKKIVQKKLAGDESAD
B5: S. cerevisiae TyrRS: S. cerevisiae tyrosyl-tRNA synthetase, NYR in place of ELR (protein)
chain: MSSAATVDPNEAFGLITKNLQEVLNPQIIKDVLEVQKRHLKLYWGTAPTGRPHCGYFVPMTKLADFLKAGCEVTVLLADLHAFLDNMKAPLEVVNYRAKYYELTIKAILRSINVPIEKLKFVVGSSYQLTPDYTMDIFRLSNIVSQNDAKRAGADVVKQVANPLLSGLIYPLMQALDEQFLDVDCQFGGVDQRKIFVLAEENLPSLGYKKRAHLMNPMVPGLAQGGKMSASDPNSKIDLLEEPKQVKKKINSAFCSPGNVEENGLLSFVQYVIAPIQELKFGTNHFEFFIDRPEKFGGPITYKSFEEMKLAFKEEKLSPPDLKIGVADAINELLEPIRQEFANNKEFQEASEKGYPVATPQKSKKAKKPKNKGTKYPGATKTNEIATKLEETKL

Assays:
MPs = assay: MP chemotaxis assay (ChemoTX microchemotaxis chamber); format: cell-based, human; details: for MP migration induced by synthetic peptide: assay as in Example 2; for MP chemotaxis (MP migration): sample proteins 1 nM, 3 hours
Protocol: (§1) Cells for the various cytokine assays described were prepared from acid citrate dextrose-treated blood of normal healthy volunteers. Human PMNs were isolated from the blood by centrifugation (700×g) over Histopaque 1077 and 1119 (Sigma). […] This procedure was repeated twice. Human MPs were isolated by centrifugation on Histopaque 1077 (Sigma). The mononuclear fraction was obtained, washed twice in Hanks' balanced salt solution, resuspended in RPMI-1640 medium (Sigma) containing 10% heat-inactivated fetal bovine serum (Sigma), plated in tissue culture flasks, and incubated in a 6% CO2 incubator at 37° C. for 1-2 hours (Kumagai et al., 1979, J. Immunol. Methods 29:17-25). Nonadherent cells were removed by washing the flasks three times with Hanks' balanced salt solution, and adherent cells were harvested by incubation with calcium-magnesium free phosphate-buffered saline containing 2 mM EDTA for 15 minutes at 4° C., followed by extensive washing.
MP chemotaxis assays were performed in a ChemoTX microchemotaxis chamber (Neuro Probe, Gaithersburg, Md.) containing polycarbonate filters (5 μm pores) with polyvinylpyrrolidone (PVP). MPs were suspended in RPMI-1640 medium containing 1% heat-inactivated fetal bovine serum, and 10^4 cells were added to the upper chamber. Sample proteins (1 nM) were added to the lower compartment of chemotaxis chambers, and the chambers were incubated for 3 hours. After incubation, nonmigrating cells were removed, membranes were fixed in methanol, and migrating cells were visualized with the HEMACOLOR™ stain set (EM Diagnostic Systems, Gibbstown, N.J.). Migrating cells were counted in high-power fields (HPFs). Each determination shown in FIG. 2 represents the average of nine HPF measurements.

PMNs [1] = assay: PMN chemotaxis assay (ChemoTX microchemotaxis chamber); format: cell-based, human; details: for PMN migration induced by synthetic peptide: assay as in Example 2; for PMN chemotaxis (PMN migration): sample proteins 1 nM, 45 min
Protocol: as §1
PMN chemotaxis assays were performed in a ChemoTX microchemotaxis chamber (described herein). Sample proteins (1 nM) were added to the lower compartment of chemotaxis chambers, and 10^4 PMNs were added to the upper compartment. Chambers were incubated for 45 min, and migrating cells were counted in HPFs. Each determination shown in FIG. 2 represents the average of nine HPF measurements.

PMNs [2] = assay: 125I-human mini TyrRS binding and competition assay on PMNs; details: for inhibition of 125I-mini TyrRS binding to PMNs by unlabeled ligand: 10 nM 125I-mini TyrRS, 200-fold molar excess of unlabeled ligand, on ice 2 hours
Protocol: The interaction of human mini TyrRS and PMNs was examined in binding studies using radioiodinated TyrRS molecules (Moser et al., 1993, J. Biol. Chem. 268:7125-28). Custom radioiodination of mini TyrRS with was performed by Research & Diagnostic Antibody (Richmond, Calif.). In the binding assays, 2×10^6 PMNs were first suspended in 120 μl of RPMI-1640 medium containing 20 mM Hepes (pH 7.4) and 10 mg/ml bovine serum albumin. […] Following incubation, cells were separated from unbound radioactivity by centrifugation at approximately 8000×g for 2 minutes through 500 μL, of a 10% sucrose/phosphate-buffered saline (PBS) cushion. The supernatant was aspirated, and the cell sediment was resuspended using EcoLite (ICN Biomedicals, Irvine, Calif.) and analyzed in a scintillation counter.
Following incubation, cells were separated from unbound radioactivity as described herein.

chick CAM = assay: Inhibition of VEGF165-induced or mini TyrRS-induced angiogenesis in chick CAM; format: in vivo; details: 3 μg inhibitor
Protocol: In vivo angiogenesis assays were conducted in chick chorioallantoic membrane (CAM) (Nicolaou et al., 1998, Bioorg. Med. Chem. 6:1185-208). Ten-day-old chick embryos were purchased from Mcintyre Poultry (Lakeside, Calif.) and were incubated at 37° C. and 70% humidity. A small hole was made with a small crafts drill (Dremel, Emerson Electric, Racine, Wis.) directly over the air sac at the end of the egg. The embryos were candled to determine a location to drill a second hole directly over embryonic blood vessels. […] A window was cut in the eggshell over the dropped CAM, exposing the CAM to direct access for experimental manipulation. Cortisone acetate-treated 5 mm filter disks were soaked with a particular protein sample (25 ng of VEGF165 or 250 ng of a given TyrRS molecule) and the filter disks added directly to the CAMs, which were relatively devoid of preexisting blood vessels. The windows were sealed with sterile tape and incubated at 37° C. At 0, 24, and 48 hours following incubation, 3 μg of […] (IP-10) (R & D Systems, Minneapolis, Minn.) was topically applied to the filter disks. After 72 hours, the CAM tissue associated with the filter disk was harvested and quantified using a stereomicroscope. Angiogenesis was assessed as the number of visible blood vessel branch points within the defined area of the filter disks. Each determination shown in FIG. 17 represents the mean from 5-8 embryos.
The angiostatic activity of human full-length TrpRS and human mini TrpRS was also analyzed in in vivo angiogenesis assays conducted in chick CAM. In vivo angiogenesis assays were performed as described in Example 12 with 3 μg of full-length TrpRS or mini TrpRS added to VEGF165-induced or mini TyrRS-induced CAM tissue.

Row | Molecule | MP migration induced by synthetic peptide (MPs; synthetic heptapeptides) | PMN migration induced by synthetic peptide (PMNs [1]; synthetic heptapeptides) | inhibition of 125I-mini TyrRS binding to PMNs by unlabeled ligand (PMNs [2]) | PMN chemotaxis (PMN migration) (PMNs [1]) | other results
1 | R-V-G-F-I-Q-K (RVGFIQK; listed as Saccharomyces cerevisiae) [synthetic peptide derived from S. cerevisiae Arc1p, reference compound] | neither peptide induced PMN or MP migration | neither peptide induced PMN or MP migration |  |  | 
2 | Gro: human recombinant Gro (Biosource International), α-chemokine |  |  | did not significantly inhibit the binding |  | 
3 | IP-10: angiostatic α-chemokine (R & D Systems) |  |  |  |  | inhibition of VEGF165-induced angiogenesis in chick CAM (chick CAM; 25 ng VEGF165, 72 hours): inhibited; inhibition of mini TyrRS-induced angiogenesis in chick CAM (chick CAM; 250 ng mini TyrRS, 72 hours): inhibited
4 | R-V-G-R-I-I-K (RVGRIIK; Caenorhabditis elegans) [synthetic peptide derived from C. elegans MetRS, reference compound] | neither peptide induced PMN or MP migration | neither peptide induced PMN or MP migration |  |  | 
5 | R-V-G-K-I-I-T (RVGKIIT; listed as Homo sapiens) [TyrRS carboxyl-terminal domain peptide, synthetic peptide derived from the TyrRS carboxyl-terminal domain] | MP migration | induced PMN migration |  |  | dose-dependence of peptide effect on MP migration (MPs; synthetic heptapeptides): dose-dependence similar to that of the mature EMAP II peptide; dose-dependence of peptide effect on PMN migration (PMNs [1]; synthetic heptapeptides): dose-dependence similar to that of the mature EMAP II peptide
6 | B1 |  |  |  | capable of can inducing both MP and PMN chemotaxis | MP chemotaxis (MP migration) (MPs): capable of can inducing both MP and PMN chemotaxis
7 | B2 |  |  | neither the TyrRS carboxyl-terminal domain nor EMAP II inhibited | induction of PMN migration | concentration dependence of PMN migration (PMNs [1]): bell-shaped concentration dependence
8 | B3 |  |  |  | capable of functioning as a chemoattractant for PMNs | MP chemotaxis (MP migration) (MPs): not for MPs
9 | B4 |  |  | did not significantly inhibit the binding |  | 
10 | B5 |  |  | inhibited the binding | no chemotaxis was observed | dissociation constant relative to that for human mini TyrRS (PMNs [2]; PMN binding competition): ≤ 200 fold; PMN chemotaxis over a concentration series (PMNs [1]; 0.1, 1, 10, 100, and 1000 nM): No significant chemotaxis
